The data set in a line: yeast display, Sf9 membrane polyspecificity reagent, FACS + sequencing; frameworks hold sequencing errors. The method in brief:
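Polyreactivity labels are assigned by the sorting gate from which each nanobody was recovered. The gates were low and high (top ~1%), set on anti-HA fluorescence for expression and streptavidin fluorescence for reagent binding. Before sorting, galactose-induced (36–48 hours) yeast display cells were stained for 1 hour at 4 °C with 10% biotinylated, detergent-solubilized Sf9 membrane reagent.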
For “QVQLVESAGGLVQAGGSLRLSCAASGRIYGQNAMGWYRQAPGKERELVAAITGSGGRTYYADSVKGRFTISRDNAKNTVYLQMNSLKPEESAVYYSAVRVTSYYRTMDYWGQGTQVTVSS”, the “polyreactivity (PSR sort gate)” value is given as “low polyreactivity”. Take “QVQLVESGGGLVQAGGSLRLSCAASGSTFFANAMGWYRQAPGKERELVAAITIGNTNYADSVKGRFTISRDNAKNTVYLQMNSLKPEDTAVYYCNASHVSHYRARDYWGQGTQVTVSS”: the “polyreactivity (PSR sort gate)” value is given as “low polyreactivity”. Regarding “QVQLVESGGGLVQAGGSLRLSCAASVLILYYYAMGWYRQAPGKERELVAAISRRDGDTYYADSVKGRFTISRDNAKNTVYLQMNSLKPEDTAVYYCAADRRWSWVFRDDYWGQGTQVTVSS”, the “polyreactivity (PSR sort gate)” value is “low polyreactivity”. For the sequence “QVQLVESGGGLVQAGGSLRLSCAASGSTFQSNAMGGYRQAPGKERELVAAISSSAGTTFYADSVKGRFTISRDNAKNTVYLQMNSLKPEDTAVYYCAAEYSRSYIEYDYWGQGTQVTVSS”, the “polyreactivity (PSR sort gate)” value is reported as “low polyreactivity”. As for “QVQLVESGGGLVQAGGSLRVSCAASGRTFSGYTMGWYRQAPGKERELVATIRDRGGSTYYADSVKGRFTISRDNAKNTVYLQMNSLTPEDTAVYYCAARRGRRYYYWGQATQVTVSS”, the “polyreactivity (PSR sort gate)” value is given as “high polyreactivity”. With “QVQLVESGGGLVQAGGSLRLSCAASGRTYSNAMGWYRQAPGKELEFVASISSGGRTKDADSVKGRFTISRDNAKNTVYLQMNSLKPEDTADYYCNTVPGRYRTFDYWGQGTKVTVSS”, the “polyreactivity (PSR sort gate)” value was “high polyreactivity”.

Regarding “QVQLVESGGGLVQAGGSIRLSCAASGTIFRSYAMGWYRQAPGKERELVAAITSSSGSTYYADSVKGRFTISRDNAKNTVYLQMNSLKPEDTAGYYFNAPYWKSRFRAYYHWGQGTQVTVSS”, the “polyreactivity (PSR sort gate)” value was “high polyreactivity”. The entry for “QVQLVESGGGLVQAGGSLRLSCAASGITFIIYVMGWYRQAPGKERELVAAISSTGSTYYADSVKGRFTISRDNAKNTVYLQMNSLKPEDTAVYYCAARGRRSSNGFYYWGQGTQVTVSS” is “high polyreactivity”. For the sequence “QVQLVESGGGLVQEGGSLRLSCAASGFTFDSNAMGWYRQAPGKERELVAAISTGGSTYYADSVKGRFTISRDNAKNTVYLQMNSLKPEDTAVYYCARDPPYPDTWYGYWGQGTQVTVSS”, the “polyreactivity (PSR sort gate)” value is given as “low polyreactivity”. On to “QVQLVESGGGLVQAGGSLRLSCAASGSTFIGYVMGWYRQAPGKERELVAAISWTGSNKYYADSVKGRFTISRDNAKNTVYLQMNSLKPEDTAVYYCNARSFAPYKNYDYWGQGTQVTVSS”, for which the “polyreactivity (PSR sort gate)” value is “low polyreactivity”. With “QVQLQESGVGLVQAYGSLRLSCAAIGSIFGYYYMGSYRQAPGKDRELVATINICGITNYADSVKGRFTISRDNAKYTVYLQMKSLKRDDTAVFYCAADEYAQRDLGYWGQGTQVTVSS” the entry was “low polyreactivity”. As to “QVQLVESGGGLVQAGGSLRLSCAASGLTFIKYAMGWYRQAPGKEREFVADISKRGGTTYYADSVKGRFTISRDTEKNTVYLQMNSLKPEDTAVYYCAARQYLNVYYRYDYWGQGTQVTVSS”, the “polyreactivity (PSR sort gate)” value was “high polyreactivity”. In the case of “QVQLVESGGGLVQAGGSLRLSCAASGRTFYYYAMGWSRQAPGKERELVAAINRGGSTNYADSVKGRFTISRDNAKNTVYLQMNSQKPEATAVYDCNAAYYGPVRSKYVYWGQGTQVTVSS”, the “polyreactivity (PSR sort gate)” value is reported as “high polyreactivity”. For the sequence “QVQRVESGGGLVQAGRSLRLSCAATGITFWVYAMGWYRQAPGKERELVAAISRRGGSTSYADSVKGRFTISRDNAKNTVYLQMNSLKPEDTAVYYCAATTYTHPYGYWGQGTQVTVSS”, the “polyreactivity (PSR sort gate)” value is given as “high polyreactivity”.

In the case of “QVQLQESGGVLVQAGGSLRQSYAASGYIFPSLAMGWYRQAPGKEREFVAAIGRGSTNNYADSVKGRFTISRDNAKNTAYQQMNSLKPEDTAVYYCAAAASPLTRHLYWGQGTQVTVSS”, the “polyreactivity (PSR sort gate)” value is “low polyreactivity”.

As for “QVQLVESGGGLVQAGGSLPLSIAASGRIFHIYAMGWYRQAPGKERELVAAISGSTSYADSVKGRFTISRDNAKNTVNLQMNSLKPEDKAVYYCAARALLPNGEYWGQGTQVTVSS”, the “polyreactivity (PSR sort gate)” value is on record as “low polyreactivity”. As for “QVQLVESGGGLVQAGGRLRLSCAASGRTLGVYTMGWYRQAPGKERELVATISYNGGSTYYADSVKGRFTISRDNAKNTVYLQMNSLKPEDTAVYYCAKAYDTTLTYNYWGQGTQVTVSS”, the “polyreactivity (PSR sort gate)” value is listed as “low polyreactivity”.

Regarding “QVQLVESGGGLVQAGGSLRLSCAASGIIFYLYAMGWYRQAPGKERELVAAITLSGSTTYYADSVKGGFTISRDNAKNTVYLQMNSLKPEDTAVYYCNADTPVRSDYWGQGTQVTVSS”, the “polyreactivity (PSR sort gate)” value is given as “low polyreactivity”. As for “QVQLVESGGGLVQAGGSLRLSCAASGRTFSSYAMGWYRQAPGKERELVAAITRTGGRTYYAYSVKGRFTISRDNAKNSVYLQMNSLKPEDTAVYFCAALYIYRTFAALSRYDYWGQGTQVTVSS”, the “polyreactivity (PSR sort gate)” value is reported as “high polyreactivity”. Turning to “QVQLVESAGGLVQAGGSLRLSCAASGITFTYYAMGWYRQAPGKERELVATISYGGGITYYADSVKGRFTISRDNAKNTVYLQMNSLKPEDTAVYYCNADGATVWSLEYWGQGTQVTVSS”, the “polyreactivity (PSR sort gate)” value was “low polyreactivity”. The entry for “QVQLVESGGGLVQAGGSLRLSCAASGFTLGYYTMGWYRQAPGKERELVAAIRSNGGSTYYADSVKGRFTISRDNAKNTVYLQMNSLKPEDTAVYYCAARRWRYVGTRYDYWGQGTQVTVSS” is “high polyreactivity”. For “QVQLVESGGGLVQAGGSLRLSCAASGFTFGSNVMGWYRQAPGKERELVAAIRGRGGSTYYADSVKGRFTISRDNAKNTVYLQMNSLKPEDTAVYYCNAVYSYYYRWYYDFDYWGQGTQVTVSS”, the “polyreactivity (PSR sort gate)” value is “high polyreactivity”. For “QVQLVESGGGLVQAGGSLRLSCAASGLTFSRNAMGWYRQAPGKEWELVAAISGSGGSTYYADSVKGRFTISRDNAKYTVYLQMNSLKPEDTAVYYCAKVSRSKQKFDYWGQGTQVTVSS”, the “polyreactivity (PSR sort gate)” value is “high polyreactivity”. Take “QVQLVESGGGLVQVGGSLRLSCAASGGIFCGNSMGWYRQAPGKERDLVAAISWDASTYYEDTVKGRFTISRDNAMNTVYLQMNSLKPEDTAVYYCNADIPYYFVYDAYDYWGQGTQVNVSS”: the “polyreactivity (PSR sort gate)” value was “low polyreactivity”. Take “QVQLVESGGGLVQAGRSLRLTCAASGRIFNPYAMGWYRQAPGKERELVAAISRGGRTYYADSVKGRFTISRDNAKNTVYLQMNSLKPEDTAVYYCNAGRGLREDDYWGQGTQVTVSS”: the “polyreactivity (PSR sort gate)” value was “low polyreactivity”. On to “QVQLVESGGGLVQAGGILRLSCAASGFIFAYYAMGWYRQAPGKERELVAAITRRGGSTSYADSVKGRFTISRDNAKNTVYLQMNSLKPEDTAVYYCNAVSKYDYGYWGQGTQVTVSS”, for which the “polyreactivity (PSR sort gate)” value is listed as “high polyreactivity”. Consider “QGQLVESGGGLVQAGGSLRLSCAASGSTVSYNAMGCSRPARGKERALVAAISSGGRTYYADSVKGRFTISRDNAKKTVYFQMNSLKPEDTAVYYCAVYETHWGYWYELDYWGQGTQVTVSS”, for which the “polyreactivity (PSR sort gate)” value is reported as “high polyreactivity”. For the sequence “QVQLVESGGGLVQAGGSLRLSCAASGITFYTNAMGWYRQAPGKERELVAGISSSSGSTYYADSVKGRFTISRDNAKNTVYLQMNSLKPEDTAVYYCAADQDSTASDYKEYGYWGQGTQVTVSS”, the “polyreactivity (PSR sort gate)” value is “low polyreactivity”. Turning to “QVQLVESGGGLVQAGGSLRLSCAAYGFTFSWYAMGWYRQAPGKERELVAAISSSGGSTYYADSVKGRFTISRDNAKNTVYLQMNSLKPEDTAVYYCNAYRSASVVVGYDYWGQGTQVTVSS”, the “polyreactivity (PSR sort gate)” value is “high polyreactivity”. Consider “QGQLVESGGGLVQAGGSLRLSCAASGSIFSVNTMGWYRQAPGKERELVATIRTGDSTNYADSVKGRFTISRDNAKNTVYLQMNSLKPEDTAVYYCAADWSSLNFDYWGQGTQVTVSS”, for which the “polyreactivity (PSR sort gate)” value is “low polyreactivity”. With “QVQLVESGGGLVQAGGSLRLSCAASGIIFVDYVMGWYRQAPGKERELVAAITYTGGSTYYADSVKGRFTISRDNAKNTVYLQMNSLKPEDTAVYYCAARRNDRFFPAYYYWGQGTQVTVSS”, the “polyreactivity (PSR sort gate)” value is “high polyreactivity”. Turning to “QVQLVESGGGLVQAGGSLRLSCAASGSTFQRNTMGWYRQAPGKERELVADITWSGGNTYYADSVKGRFTISRDNAKNTVYLQMNSLKPEDTAVYYCAAQNVRVGWHASTSYPCPLDYWGPGTQVTVSS”, the “polyreactivity (PSR sort gate)” value was “low polyreactivity”. With “QVQLVESGGGLVHAGGSLRLSCAASGLIFPRYDMGWYRQAPGKELELVAAITSGGGTYYADSVKGRITISRDNAKNTVYLQMNSLIPEDTAVYYCARDHYRHSRFFYRYVYWGQGTQVSVSS”, the “polyreactivity (PSR sort gate)” value is recorded as “low polyreactivity”. For the sequence “QDQLVESGGGLVQAGGTLRLSCAASGRIFPYNAMGWYRQAPGKERQLVAAISKSGVRTYYADSVKGRFTISRDNAKNTVYLQMNSLNPEETAVYYCAKLSPYGGDVGASEGPEYDYWGQGTQVTVSS”, the “polyreactivity (PSR sort gate)” value is given as “high polyreactivity”.

Regarding “QVQLVDSVGRLVQAGGSLRLSCAASGSTFVGYAMGWYRHAPGKEREMDADIDSIGGSTYYADSVKGRFTISRDNAKNTVYLQMNILKPEDTAVYYCAARRYDTALVLYDYWGQGTQVTVSS”, the “polyreactivity (PSR sort gate)” value was “low polyreactivity”. As for “QVQLLEAGGGLVQAGGSLRFSCAHSGSIVSHYAIGWYRQAPGKERELVAAITGGGITYYADSVKGRFTISRDNAKNTVYLQMNSLKPEDTAVDYCDTDSLMFTIYDYWGQGTQVTVSS”, the “polyreactivity (PSR sort gate)” value is recorded as “low polyreactivity”. Regarding “QVQLVESGGGLVQAGGSLRLSCAASGRTFGFNAMGWYRQAPGKERELVATITTGGSTNYADSVKGRFTISRDNAKNTVYLQMNSLKPEDTAVYYCATDGWFRSGYKYFTHFYFWGQGTQVTVSS”, the “polyreactivity (PSR sort gate)” value is “high polyreactivity”. “QVQLVESGGGLVQAGGSLRLSCAASGFTFSYNSMGRYRQATAKERELVARISRTGGSTNYADSVKGRFTISRDNAKNTVYLQMNSLKPEDTAVYYCATGYRYTYGSWGQGTQVTVSS”: the “polyreactivity (PSR sort gate)” value is “high polyreactivity”. In the case of “QVQLVESGGGLVQAGGSLRLSCAASGSIFYGYTMGWYRQEPRKERELVAAIRKSGGSTNYADSVKGRFTISRDTAKNTVYLQMNSLKPEDTALYNCAADYYRRRGYYWGQGTQVTVSS”, the “polyreactivity (PSR sort gate)” value is on record as “high polyreactivity”.

Consider “QVQLVESGGGLVQAGGSLRLSCAAYGRIFWLYAMGWYRQAPGKERELVAVISWSGGTTYYADSVKGRFTISRDNAKNTVYLQMNSLKPEVTAVYYCAKQGWTSYDYWGQGTQVTVSS”, for which the “polyreactivity (PSR sort gate)” value was “low polyreactivity”.

As to “QVQLVESGGGLVQAGGSLRLSCAASGSIFPSNAMGWYRQAPGKERELVAAINRDGITNYADSVKGRFTISRDNAKNTVYLQMNSLKPEDTAVYYCAAEFAWQWWEYGYWGQGSQVTVSS”, the “polyreactivity (PSR sort gate)” value is given as “low polyreactivity”.

These data come from the nanobody polyreactivity screen of Harvey et al. (2022).
